Data published in patent US20240327526A1 (Amgen, published 2024).

T1: activin type IIB receptor (ActRIIB) on C2C12/pMARE-luc cells co-transfected with ALK4 (Homo sapiens (Human), UniProt Q13705 19-134)
T1 chain: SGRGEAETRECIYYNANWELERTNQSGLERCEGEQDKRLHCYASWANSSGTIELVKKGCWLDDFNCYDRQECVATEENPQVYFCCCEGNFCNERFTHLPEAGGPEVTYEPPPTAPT


What was measured:
ActRIIA-huFc [1] = biological target: T2, ActRIIA-huFc (human); assay: binding affinity, method not stated
T2 construct: Used biotinylated in the ELISA screens; also called huActRIIA-huFc; biotin-ActRIIA-huFc
T2 sequence (chain, as listed by the source limits assumed): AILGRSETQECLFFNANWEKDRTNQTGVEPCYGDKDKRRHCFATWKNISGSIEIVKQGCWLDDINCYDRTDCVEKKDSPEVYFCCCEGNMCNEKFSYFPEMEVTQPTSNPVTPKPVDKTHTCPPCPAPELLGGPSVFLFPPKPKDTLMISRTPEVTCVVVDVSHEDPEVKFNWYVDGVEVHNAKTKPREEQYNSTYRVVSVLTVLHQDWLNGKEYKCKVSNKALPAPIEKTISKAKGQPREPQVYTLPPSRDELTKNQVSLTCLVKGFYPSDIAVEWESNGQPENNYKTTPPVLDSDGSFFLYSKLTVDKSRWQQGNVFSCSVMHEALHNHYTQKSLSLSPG

ActRIIA-huFc [2] = biological target: T2, ActRIIA-huFc; assay: BIAcore
[3] = biological target: T1, activin type IIB receptor (ActRIIB) on …; assay: cell-based or functional assay
[4] = biological target: activin type IIA receptor (ActRIIA) on C2C12/pMARE-luc cells co-transfected with ALK4 (Homo sapiens (Human), UniProt P27037 20-513); assay: cell-based or functional assay
Sequence of activin type IIA receptor (ActRIIA) on C2C12/pMARE-luc cells co-transfected with ALK4 (P27037 20-513): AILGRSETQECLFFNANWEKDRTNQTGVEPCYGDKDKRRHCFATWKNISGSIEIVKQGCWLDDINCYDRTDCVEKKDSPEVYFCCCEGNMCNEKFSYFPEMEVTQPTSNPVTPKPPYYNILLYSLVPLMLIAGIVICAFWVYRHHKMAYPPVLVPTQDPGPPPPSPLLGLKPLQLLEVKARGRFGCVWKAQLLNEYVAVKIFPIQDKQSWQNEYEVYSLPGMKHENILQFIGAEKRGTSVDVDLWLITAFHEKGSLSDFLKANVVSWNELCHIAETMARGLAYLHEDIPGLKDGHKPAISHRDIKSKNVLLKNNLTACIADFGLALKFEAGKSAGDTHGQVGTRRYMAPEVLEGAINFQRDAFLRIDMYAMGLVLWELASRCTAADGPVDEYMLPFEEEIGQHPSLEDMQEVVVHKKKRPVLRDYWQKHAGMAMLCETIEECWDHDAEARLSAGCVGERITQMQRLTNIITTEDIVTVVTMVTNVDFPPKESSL

ActRIIA-huFc [5] = biological target: T2, ActRIIA-huFc; assay: KinExA

Kd (ActRIIA-huFc [1]) [pM] | Kd (ActRIIA-huFc [2]) [pM] | Cell-Based IC50, ActRIIB Signaling (luciferase reporter, C2C12/pMARE-luc cells with ActRIIB + ALK4, 4 nM myostatin or activin) [3] [nM] | Cell-Based IC50, ActRIIA Signaling (luciferase reporter, C2C12/pMARE-luc cells with ActRIIA + ALK4, 4 nM myostatin or activin) [4] [nM] | Kd (ActRIIA-huFc [5]) [pM] | fold improvement of affinity over the parental molecule R31-1 (ActRIIA-huFc [5]) [fold] | Binder
~1000 | 4000 | 8 | 2 |  |  | Anti-ActRIIB human IgG R31-1 (antibody, V domains shown, Human IgG2/kappa from Xenomouse immunization with ActRIIB-huFc; also called parental 31-1; parental molecule R31-1) VH: EVQLLESGGGLVQPGGSLRLSCAASGFTFRNYAMSWVRQAPGKGLEWVSGISVTGGSTYYTDSVKGRFTVSRDNSRNTLYLQMNSLRAEDTAVYYCAKVYYSSFFDYWGQGTLVTVSS VL: QTVVTQEPSFSVSPGGTVTLTCGFNSGSVSTSYYPSWYQQTPGQAPRTLIYNTNTRSSGVPDRFSGSILGNKAALTITGAQADDESDYYCVLYMGSGIWVFGGGTKLTVLG
 |  |  |  | < 1 | ≥ 1000 | M25 (antibody, human IgG2, lambda, V domains shown) VH: EVQLLESGGGLVQPGGSLRLSCAASGFTFRNSAMSWVRQAPGKGLEWVSAISVTGGSTYYTDSVKGRFTVSRDNSRNTLYLQMNSLRAEDTAVYYCAKVYYYSFFDYWGQGTLVTVSS VL: QTVVTQEPSFSVSPGGTVTLTCGFNSGSVSTSYYPSWYQQTPGQAPRTLIYNTNTRSSGVPDRFSGSILGNKAALTITGAQADDESDYYCVLYMGSGIHVFGGGTKLTVLG
 | 1 | 2 |  | < 1 | ≥ 1000 | M43 (antibody, human IgG2, lambda, V domains shown, fully human) VH: EVQLLESGGGLVQPGGSLRLSCAASGFTFRNSAMSWVRQAPGKGLEWVSGISVTGGSTFYTDSVKGRFTVSRDNSRNTLYLQMNSLRAEDTAVYYCAKVYYYSFFDYWGQGTLVTVSS VL: QTVVTQEPSFSVSPGGTVTLTCGFNSGSVSTSYWPSWYQQTPGQAPRTLIYNTNTRSSGVPDRFSGSILGNKAALTITGAQADDESDYYCVLWMGSGIWVFGGGTKLTVLG
 |  |  |  | < 1 | ≥ 1000 | M37 (antibody, human IgG2, lambda, V domains shown) VH: EVQLLESGGGLVQPGGSLRLSCAASGFTFRNYAMAWVRQAPGKGLEWVSGISVTGGSTFYTDSVKGRFTVSRDNSRNTLYLQMNSLRAEDTAVYYCAKVYYTSFFDYWGQGTLVTVSS VL: QTVVTQEPSFSVSPGGTVTLTCGFNSGSVSTSYYPSWYQQTPGQAPRTLIYNTNTRSSGVPDRFSGSILGNKAALTITGAQADDESDYYCVLWMGSGIWVFGGGTKLTVLG
